125 sequences from the supplement of paper PMC9112550, “Optimization of the antimicrobial peptide Bac7 by deep mutational scanning” (BMC Biology, 2022) can be followed below.

The subject of the data set is Escherichia coli TOP10. In words: shrunken log2 fold change of peptide-encoding DNA abundance (4.5 h post-induction vs induction); higher = less antimicrobial activity (less host growth inhibition). The following applies: time post-induction: 4.5 h; library: site-saturation at positions 5, 18, 19, 20.
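Further: peptides expressed intracellularly from a pBAD plasmid library in pooled LB shake-flask culture, induced with 0.3% L-arabinose, DNA abundance read by NGS, three biological replicates, DESeq2 with apeglm shrinkage.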

With RRIRQRPPRLPRPRPRPINMPRP, the “shrunken log2 fold change” value is -0.28. Then RRIRPRPPRLPRPRPRPPMMPRP, with 0.0805. Then RRIRARPPRLPRPRPRPVSSPRP, with 0.155. Then RRIRQRPPRLPRPRPRPYVDPRP, with -0.431; and RRIRRRPPRLPRPRPRPNSWPRP, with -0.0571.

Regarding RRIRRRPPRLPRPRPRPHEGPRP, the “shrunken log2 fold change” value was found to be 0.28.

With RRIRERPPRLPRPRPRPIFPPRP, the “shrunken log2 fold change” value was -0.367. Then RRIRRRPPRLPRPRPRPNPRPRP, with 1.11. Then RRIRTRPPRLPRPRPRPQSIPRP, with -0.125; and RRIRTRPPRLPRPRPRPMEHPRP, with 0.118; and RRIRPRPPRLPRPRPRPPAPPRP, with 0.629. With RRIRRRPPRLPRPRPRPKVMPRP, the “shrunken log2 fold change” value is 0.16. With RRIRGRPPRLPRPRPRPVASPRP, the “shrunken log2 fold change” value was 0.623. For RRIRNRPPRLPRPRPRPREGPRP, the “shrunken log2 fold change” value came out at 0.187. For the sequence RRIRIRPPRLPRPRPRPKIKPRP, the “shrunken log2 fold change” value was -0.696.

With RRIRCRPPRLPRPRPRPHRDPRP, the “shrunken log2 fold change” value was -0.3. Then RRIRTRPPRLPRPRPRPIMMPRP, with -0.267. Then RRIRTRPPRLPRPRPRPQIYPRP, with -0.179.

For RRIRHRPPRLPRPRPRPMDEPRP, the “shrunken log2 fold change” value was -0.204. Then RRIRARPPRLPRPRPRPQCFPRP, with 0.1; and RRIRRRPPRLPRPRPRPVYTPRP, with 0.0292; and RRIRGRPPRLPRPRPRPYSHPRP, with -0.129.

As to RRIRYRPPRLPRPRPRPRMSPRP, the “shrunken log2 fold change” value is 0.256. Then RRIRVRPPRLPRPRPRPEMKPRP, with -0.184.

As to RRIRTRPPRLPRPRPRPHWAPRP, the “shrunken log2 fold change” value came to 0.0228.

For RRIRYRPPRLPRPRPRPRGTPRP, the “shrunken log2 fold change” value is 0.173. For the sequence RRIRCRPPRLPRPRPRPPARPRP, the “shrunken log2 fold change” value is 0.735.

Turning to RRIRKRPPRLPRPRPRPRVYPRP, the “shrunken log2 fold change” value worked out at 0.307. Turning to RRIRHRPPRLPRPRPRPKDPPRP, the “shrunken log2 fold change” value was 0.0476. Then RRIRMRPPRLPRPRPRPLAIPRP, with 0.173; and RRIRTRPPRLPRPRPRPFHRPRP, with -0.469; and RRIRVRPPRLPRPRPRPFLDPRP, with -0.187. For RRIRGRPPRLPRPRPRPKNTPRP, the “shrunken log2 fold change” value is 0.232. Then RRIRTRPPRLPRPRPRPDHRPRP, with 0.0733. Then RRIRFRPPRLPRPRPRPNAAPRP, with 0.419; and RRIRWRPPRLPRPRPRPYKHPRP, with -1.24; and RRIRWRPPRLPRPRPRPWMWPRP, with 0.0359. Then RRIRYRPPRLPRPRPRPDVCPRP, with -0.124. Regarding RRIRTRPPRLPRPRPRPVPVPRP, the “shrunken log2 fold change” value was 0.0547. Consider RRIRHRPPRLPRPRPRPYKPPRP, for which the “shrunken log2 fold change” value is -0.466.

On to RRIRPRPPRLPRPRPRPKVTPRP, for which the “shrunken log2 fold change” value came to 0.0845. Then RRIRCRPPRLPRPRPRPHTRPRP, with -0.372. Then RRIRARPPRLPRPRPRPRRVPRP, with 1.36. Then RRIRPRPPRLPRPRPRPKMPPRP, with -0.0926; and RRIRFRPPRLPRPRPRPMSCPRP, with 0.0282; and RRIRERPPRLPRPRPRPGYNPRP, with -0.0871. On to RRIRYRPPRLPRPRPRPGQNPRP, for which the “shrunken log2 fold change” value was -0.01. With RRIRVRPPRLPRPRPRPCQWPRP, the “shrunken log2 fold change” value is -0.0851. For RRIRIRPPRLPRPRPRPHFWPRP, the “shrunken log2 fold change” value amounted to 0.0146. For the sequence RRIRFRPPRLPRPRPRPFRAPRP, the “shrunken log2 fold change” value was determined as 0.0466. Then RRIRRRPPRLPRPRPRPHISPRP, with -0.0794. Then RRIRVRPPRLPRPRPRPYGHPRP, with -0.0167. Then RRIRIRPPRLPRPRPRPDRFPRP, with 0.0544. Turning to RRIRSRPPRLPRPRPRPVTDPRP, the “shrunken log2 fold change” value is 0.102. As for RRIRWRPPRLPRPRPRPETHPRP, the “shrunken log2 fold change” value worked out at 0.756. Then RRIRCRPPRLPRPRPRPDSTPRP, with -0.235. Then RRIRQRPPRLPRPRPRPMLAPRP, with 0.0967; and RRIRVRPPRLPRPRPRPQFTPRP, with -0.697. For the sequence RRIRGRPPRLPRPRPRPPYHPRP, the “shrunken log2 fold change” value was 0.0679. Then RRIRLRPPRLPRPRPRPYLHPRP, with -0.447; and RRIRPRPPRLPRPRPRPRLNPRP, with 0.307.

Consider RRIRKRPPRLPRPRPRPSGHPRP, for which the “shrunken log2 fold change” value is -0.0496. Then RRIRSRPPRLPRPRPRPGHTPRP, with 0.0898; and RRIRQRPPRLPRPRPRPSPQPRP, with 0.548; and RRIRWRPPRLPRPRPRPNNYPRP, with -0.571. Then RRIRMRPPRLPRPRPRPDVIPRP, with -0.0756; and RRIRHRPPRLPRPRPRPWKGPRP, with -0.0165; and RRIRLRPPRLPRPRPRPDTSPRP, with -0.114. Then RRIRHRPPRLPRPRPRPAMCPRP, with -0.148. With RRIRLRPPRLPRPRPRPFEPPRP, the “shrunken log2 fold change” value came out at 0.00273. Then RRIRSRPPRLPRPRPRPNVDPRP, with 0.0085; and RRIRGRPPRLPRPRPRPKAQPRP, with 1.27. Then RRIRKRPPRLPRPRPRPAYKPRP, with 0.354.

As for RRIRPRPPRLPRPRPRPKFAPRP, the “shrunken log2 fold change” value stood at 0.409. Then RRIRNRPPRLPRPRPRPDAVPRP, with 0.0764.

In the case of RRIRMRPPRLPRPRPRPGECPRP, the “shrunken log2 fold change” value is -0.0159. Then RRIRMRPPRLPRPRPRPNGEPRP, with 0.278; and RRIRARPPRLPRPRPRPEWNPRP, with 0.76; and RRIRHRPPRLPRPRPRPALHPRP, with 0.111. Then RRIRSRPPRLPRPRPRPGREPRP, with 0.325; and RRIRNRPPRLPRPRPRPTCMPRP, with 0.0558; and RRIRGRPPRLPRPRPRPSHIPRP, with 0.0558. Then RRIRARPPRLPRPRPRPQWGPRP, with 0.315; and RRIRWRPPRLPRPRPRPQFSPRP, with 0.053. With RRIRFRPPRLPRPRPRPMFCPRP, the “shrunken log2 fold change” value is -0.111. Then RRIRIRPPRLPRPRPRPDYSPRP, with -1.21; and RRIRLRPPRLPRPRPRPLYCPRP, with -0.366; and RRIRTRPPRLPRPRPRPPPVPRP, with 0.652. Then RRIRPRPPRLPRPRPRPTKHPRP, with -0.131; and RRIRCRPPRLPRPRPRPNTDPRP, with -0.27; and RRIRVRPPRLPRPRPRPICIPRP, with -0.449. Then RRIRKRPPRLPRPRPRPWSTPRP, with 0.0277; and RRIRQRPPRLPRPRPRPRSIPRP, with -0.0928.

For the sequence RRIRRRPPRLPRPRPRPEAAPRP, the “shrunken log2 fold change” value worked out at 1.31. Then RRIRQRPPRLPRPRPRPRGSPRP, with 0.0908; and RRIRGRPPRLPRPRPRPHFKPRP, with 0.178; and RRIRMRPPRLPRPRPRPVCKPRP, with 0.222. Then RRIRNRPPRLPRPRPRPQYAPRP, with -0.0234; and RRIRARPPRLPRPRPRPKTWPRP, with 0.261. Then RRIRLRPPRLPRPRPRPSSNPRP, with -0.211; and RRIRCRPPRLPRPRPRPPLAPRP, with 0.79. Regarding RRIRKRPPRLPRPRPRPGYLPRP, the “shrunken log2 fold change” value is -0.319. Then RRIRCRPPRLPRPRPRPGVIPRP, with -0.0294.

RRIRFRPPRLPRPRPRPRRDPRP: the “shrunken log2 fold change” value is 0.798. Then RRIRHRPPRLPRPRPRPEAMPRP, with -0.00857. Take RRIRPRPPRLPRPRPRPVCPPRP: the “shrunken log2 fold change” value was determined as 0.0159.

Consider RRIRVRPPRLPRPRPRPYYWPRP, for which the “shrunken log2 fold change” value was -0.0974. Then RRIRPRPPRLPRPRPRPCFAPRP, with 0.0019; and RRIRDRPPRLPRPRPRPTADPRP, with 0.133; and RRIRFRPPRLPRPRPRPMKPPRP, with -0.0229.

Consider RRIRGRPPRLPRPRPRPPTRPRP, for which the “shrunken log2 fold change” value came out at 1.

On to RRIRQRPPRLPRPRPRPVQFPRP, for which the “shrunken log2 fold change” value is -0.0919. Then RRIRHRPPRLPRPRPRPGVGPRP, with 0.146; and RRIRHRPPRLPRPRPRPQQGPRP, with -0.14; and RRIRSRPPRLPRPRPRPAMMPRP, with -0.0721.

In the case of RRIRTRPPRLPRPRPRPVAKPRP, the “shrunken log2 fold change” value was found to be 0.111. Then RRIRDRPPRLPRPRPRPAVGPRP, with 0.148; and RRIRVRPPRLPRPRPRPGGPPRP, with 0.0704. Then RRIRTRPPRLPRPRPRPASIPRP, with -0.13; and RRIRARPPRLPRPRPRPDQNPRP, with 0.489.

Regarding RRIRHRPPRLPRPRPRPHSLPRP, the “shrunken log2 fold change” value was -0.00992.

As to RRIRPRPPRLPRPRPRPTEGPRP, the “shrunken log2 fold change” value was -0.0468. As for RRIRSRPPRLPRPRPRPFFRPRP, the “shrunken log2 fold change” value is -0.0536.

Regarding RRIRIRPPRLPRPRPRPNTDPRP, the “shrunken log2 fold change” value was -0.703. With RRIRFRPPRLPRPRPRPAFKPRP, the “shrunken log2 fold change” value was -0.347.
